Literature values, collected in patent publication US9084831B2, “Molecular probe precursor for imaging of pancreatic islet, and use thereof” (Kyoto University, priority 2008, dated 2015).

Conditions: mouse, in vivo, iv; cited from earlier work

Substance: ^125I labeled exendin(9-39): exendin(9-39), a GLP-1R ligand, 125I-labeled by Bolton-Hunter labeling (PerkinElmer NEX 335)
- accumulation and binding among organs: accumulates selectively and specifically in the pancreas among organs
